Experimental data reported in patent US20240317847A1 (Bayer, published 2024).
Positions count from the first letter of the chain named.

B1: TPP-21150 (antibody, V domains shown)
VH: EVQLLESGGGLVQPGGSLRLSCAASGFTFSSYGMHWVRQAPGKGLEWVSVISYDGSYKYYADSVKGRFTISRDNSKNTLYLQMNSLRAEDTAVYYCAAGVPDYWGQGTLVTVSS
VL: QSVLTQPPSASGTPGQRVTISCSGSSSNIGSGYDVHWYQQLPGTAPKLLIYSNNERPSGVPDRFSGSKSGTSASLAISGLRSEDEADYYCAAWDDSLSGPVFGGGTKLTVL
B2: TPP-21158 (antibody, V domains shown)
VH: B1 VH with S49A, A98R
VL: QSVLTQPPSASGTPGQRVTISCTGSSSNIGAGYDVHWYQQLPGTAPKLLIYSNNERPSGVPDRFSGSKSGTSASLAISGLRSEDEADYYCAAWDDSLNGPVFGGGTKLTVL
B3: TPP-21157 (antibody, V domains shown)
VH: B1 VH
VL: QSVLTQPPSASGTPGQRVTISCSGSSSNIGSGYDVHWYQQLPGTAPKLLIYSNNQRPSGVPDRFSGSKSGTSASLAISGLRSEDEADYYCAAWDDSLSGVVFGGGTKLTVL
B4: TPP-27154 (antibody, V domains shown)
VH: B1 VH
VL: B2 VL with N98S
B5: TPP-21153 (antibody, V domains shown)
VH: B1 VH
VL: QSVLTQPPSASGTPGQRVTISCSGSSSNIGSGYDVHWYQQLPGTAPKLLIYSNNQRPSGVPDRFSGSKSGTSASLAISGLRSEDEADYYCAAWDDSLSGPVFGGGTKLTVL
B6: TPP-29396 (antibody, human IgG1, V domains shown)
VH: B1 VH with S49A
VL: B2 VL with T23S, G30W, A31S, G32D, N54E, D95F, N98Y
B7: TPP-29399 (antibody, human IgG1, V domains shown)
VH: B1 VH with S49A
VL: B2 VL with T23S, A31S, G32D, D95S, N98S
B8: TPP-29397 (antibody, human IgG1, V domains shown)
VH: B1 VH with S49A
VL: B2 VL with T23S, G30W, A31S, N54E, D95S, N98Y
B9: TPP-29404 (antibody, human IgG1, V domains shown)
VH: B1 VH with M34G, S49A, V50L
VL: B2 VL with T23S, A31S, G32Y, D95S, N98S
B10: TPP-29403 (antibody, human IgG1, V domains shown)
VH: B1 VH with M34G, S49A, V50L
VL: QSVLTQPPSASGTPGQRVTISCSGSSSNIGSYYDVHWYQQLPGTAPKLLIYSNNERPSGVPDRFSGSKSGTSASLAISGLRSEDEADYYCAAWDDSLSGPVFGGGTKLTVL
B11: TPP-29401 (antibody, human IgG1, V domains shown)
VH: B1 VH with M34G, S49A
VL: B2 VL with T23S, A31S, G32Y, N54E, N98S
B12: TPP-29394 (antibody, human IgG1, V domains shown)
VH: B1 VH with S49A
VL: B2 VL with T23S, A31S, G32D, D95F, N98Y
B13: TPP-29400 (antibody, human IgG1, V domains shown)
VH: B1 VH with M34G, S49A, V50L
VL: B2 VL with T23S, A31S, G32D, D95F, N98S
B14: TPP-29389 (antibody, human IgG1, V domains shown)
VH: B1 VH with S49A
VL: B2 VL with T23S, A31S, G32Y, N54E, D95P, N98Y
B15: TPP-29384 (antibody, human IgG1, V domains shown)
VH: B1 VH with S49A
VL: B2 VL with T23S, A31S, N54E, D95P, N98S
B16: TPP-29402 (antibody, human IgG1, V domains shown)
VH: B1 VH with M34G, S49A, V50L
VL: B2 VL with T23S, A31S, Y33L, N54E, D95S, N98Y
B17: TPP-29392 (antibody, human IgG1, V domains shown)
VH: B1 VH with S49A
VL: B2 VL with T23S, G30W, A31S, G32D, N54E, D95S, N98S
B18: TPP-29393 (antibody, human IgG1, V domains shown)
VH: B1 VH with S49A
VL: B2 VL with T23S, A31S, G32D, Y33L, N54E, N98Y

target: T1, human IL-11 (human, UniProt P20809 22-199); experiment: cell-based or functional assay
T1 sequence: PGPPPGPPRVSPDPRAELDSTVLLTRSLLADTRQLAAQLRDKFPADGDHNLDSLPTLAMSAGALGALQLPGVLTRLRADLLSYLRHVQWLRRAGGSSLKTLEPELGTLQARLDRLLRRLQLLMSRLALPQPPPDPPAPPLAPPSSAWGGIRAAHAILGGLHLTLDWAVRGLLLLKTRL

Binder | Efficacy (%), RGA [%] | IC50, RGA [nM]
B1 | 46.9 | 12
B2 | 19.4 | –
B3 | 13.4 | –
B4 | 58.7 | 24
B5 | 34 | 26

target: T2, murine IL-11 (mouse, UniProt P47873 22-199); experiment: cell-based or functional assay
T2 sequence: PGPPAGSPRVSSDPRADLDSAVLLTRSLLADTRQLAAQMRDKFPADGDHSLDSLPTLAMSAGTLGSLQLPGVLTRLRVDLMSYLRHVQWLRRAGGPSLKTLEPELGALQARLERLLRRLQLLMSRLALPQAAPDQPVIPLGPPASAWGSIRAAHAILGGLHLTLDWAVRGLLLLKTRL

Binder | Efficacy (%), RGA [%] | IC50, RGA [nM]
B1 | 92.2 | 1.6
B2 | 73.2 | 2.4
B3 | 59.2 | 44
B4 | 92.9 | 1.8
B5 | 81.2 | 3.4

target: T3, human IL-11 (human, UniProt P20809 22-199); experiment: SPR, antibody captured, IL-11 as analyte
T3 construct: Invigate, e.g. lot #C121021-19; biotinylated where coated in the ELISA; also called hIL-11; hIL11
T3 sequence: T1 sequence

Binder | Kd [nM]
B6 | 0.78
B7 | 0.56
B8 | 0.35
B9 | 0.2
B10 | 0.77
B11 | 0.69
B12 | 1.2
B13 | 0.5
B14 | 0.23
B15 | 0.98
B16 | 0.19
B17 | 0.92
B18 | 0.66

target: T4, cynomolgus IL-11 (cynomolgus, UniProt P20808 22-199); experiment: SPR, antibody captured, IL-11 as analyte
T4 construct: Invigate, lot #C290621-19; also called cIL11; cynoL-11
T4 sequence: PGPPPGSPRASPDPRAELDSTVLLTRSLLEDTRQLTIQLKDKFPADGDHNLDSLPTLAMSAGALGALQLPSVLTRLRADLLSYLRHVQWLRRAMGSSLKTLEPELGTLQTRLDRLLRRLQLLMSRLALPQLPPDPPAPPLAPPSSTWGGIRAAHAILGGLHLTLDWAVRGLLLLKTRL

Binder | Kd [nM]
B6 | 0.92
B7 | 0.57
B8 | 0.8
B9 | 0.14
B10 | 0.26
B11 | 0.23
B12 | 0.67
B13 | 0.35
B14 | 0.91
B15 | 0.86
B16 | 0.32
B17 | 0.85
B18 | 0.72

target: T5, rat IL-11 (rat, UniProt Q99MF5 22-199); experiment: SPR, antibody captured, IL-11 as analyte
T5 construct: Invigate, e.g. lot #C301019-19; also called rIL11
T5 sequence: T2 sequence with S50N, L84F, G94A, V137A, I138V

Binder | Kd [nM]
B6 | 0.44
B7 | 0.53
B8 | 0.057
B9 | 0.067
B10 | 0.11
B11 | 0.058
B12 | 0.37
B13 | 0.75
B14 | 0.083
B15 | 0.18
B16 | 0.018
B17 | 0.95
B18 | 0.18

target: T6, murine IL-11 (mouse, UniProt P47873 22-199); experiment: SPR, antibody captured, IL-11 as analyte
T6 construct: Invigate, e.g. lot #C210819-09; biotinylated where coated in the ELISA; also called mIL-11; mIL11
T6 sequence: T2 sequence

Binder | Kd [nM]
B6 | 0.7
B7 | 0.93
B8 | 0.11
B9 | 0.091
B10 | 0.18
B11 | 0.11
B12 | 0.65
B13 | 0.96
B14 | 0.12
B15 | 0.3
B16 | 0.045
B17 | 1.1
B18 | 0.39

target: T1, human IL-11; experiment: SPR, antibody captured, IL-11 as analyte
Experimental: (§1) Antibodies were captured via anti-mouse Fc IgGs (“Mouse antibody capture kit, Order No. BR100383, Cytiva) covalently amine coupled to a Series S CM5 sensor chip (Cytiva). The amine coupling was carried out according to the manufacturer's instructions using 1-ethyl-3-(3-dimethylaminopropyl) carbodiimide hydrochloride (EDC), N-hydroxysuccinimide (NHS) and ethanolamine HCl, pH 8.5 (“Amine Coupling Kit” BR-1000-50, Cytiva.). Human IL-11 (Invigate, e.g., lot #C121021-19), and murine IL-11 (Invigate, e.g., lot #C210819-09) were used as analytes. […] Based on that experiment an IL-11 concentration range was chosen to optimally determine kinetics and affinity of anti-IL-11 antibodies in multicycle kinetics mode. The sensor surface was regenerated with glycine pH 1.7 after each antigen injection. Obtained sensorgrams were double referenced (subtraction of reference flow cell signal and buffer injection) and were fitted to a 1:1 Langmuir binding model to derive kinetic data using the Biacore T200 Evaluation software or the Biacore Insight software.
(§2) For the 2nd round of germlining, single reversions were then combined on DNA level, expressed and purified as described in Example 15, and tested by SPR as described in Example 16.

Binder | Kd [nM]
B1 | 5.6
B2 | 47
B3 | 13
B4 | 5.4
B5 | 10

target: T2, murine IL-11; experiment: SPR, antibody captured, IL-11 as analyte
Experimental: as §1, §2

Binder | Kd [nM]
B1 | 1.4
B2 | 13
B3 | 73
B4 | 1.3
B5 | 3.6

target: T3, human IL-11; experiment: cell-based or functional assay

Binder | RGA Efficacy (%) | RGA IC50 [nM]
B6 | 78.9 | 0.65
B7 | 70.2 | 0.73
B8 | 71 | 0.53
B9 | 71.8 | 0.72
B10 | 82.4 | 1.7
B11 | 83.3 | 1.3
B12 | 89.8 | 1.7
B13 | 59.6 | 0.46
B14 | 87.3 | 0.84
B15 | 81.9 | 2.8
B16 | 80.7 | 0.53
B17 | 80.2 | 1.2
B18 | 87.3 | 0.61

target: T6, murine IL-11; experiment: cell-based or functional assay

Binder | RGA Efficacy (%) | RGA IC50 [nM]
B6 | 96.1 | 0.39
B7 | 90 | –
B8 | 93.8 | 0.31
B9 | 91.8 | 0.19
B10 | 94.3 | 0.27
B11 | 96.9 | 0.15
B12 | 93.9 | 0.48
B13 | 87.3 | –
B14 | 97.4 | 0.29
B15 | 97.2 | 0.33
B16 | 95.5 | 0.19
B17 | 89.3 | –
B18 | 96.2 | 0.24
